Data taken from doi:10.1101/393223, “Structures of the substrate-engaged 26S proteasome reveal the mechanisms for ATP hydrolysis-driven translocation” (bioRxiv, 2018).

Target: T1, Rpn11 (3XFLAG-tagged, in the 26S proteasome) (S. cerevisiae, UniProt P43588 1-306)
T1 construct: Rpn11, Zn2+-dependent deubiquitinase of the lid, S. cerevisiae; strain YYS40 RPN11::RPN11-3XFLAG; the catalytic Zn2+ is not visible in the structure; also called Rpn11 deubiquitinase; source: purified from S. cerevisiae strain YYS40 as part of the 26S proteasome (anti-FLAG, SEC)
Test: cryo-EM structure; 26S proteasome (20 μM; 20 mM HEPES pH 7.6, 25 mM NaCl, 25 mM KCl, 10 mM MgCl2, 1 mM TCEP, 5 mM ATP, 0.05% NP-40, ATP regeneration system, 6 mM ortho-phenanthroline) mixed with an equal volume of 50 μM ubiquitinated model substrate and vitrified at once; single-particle analysis gave four substrate-engaged states (1D*, 5D, 5T, 4D)
Conditions: both partners purified

binding result: binds
B1: ubiquitin (S. cerevisiae), the most proximal, substrate-attached moiety of the poly-ubiquitin chain (natural protein)
chain: not shown
modifications: C-terminus in an isopeptide bond with the substrate lysine; part of a K63-linked ubiquitin chain
notes: ubiquitin, S. cerevisiae; cut product of the ubiquitin precursors; Modeled at the Rpn11 active site in the 4D state with PDB 5U4P as template; also called ubiquitin moiety
